Test [1] deals with monoclonal antibody mAB 198. The experiment in a line: peptide microarray, fluorescence, linear peptide.
In test [2] the target is monoclonal antibody mAB 198. The test can be described thus: peptide microarray, fluorescence, cyclic peptide.

Where no end group is shown, it is not given here.

With VRHRWNPAD, the relative signal [%] in test [1] was found to be 8.1%.
In test [1], VDCNLKYNP showed a relative signal [%] of 6.1%.
On the same count and under the same terms, the value for NPDDYGH [NPDDYGH, linear mimotope] was 7.7%; that for GNPADYGGI was 8.9%.
In the case of RPNPADY [RPNPADY, linear mimotope], the relative signal [%] in test [1] is 9.5%.
DVRLRVNPADY (also: cyclic peptide, mode of cyclisation not given here): the relative signal [%] in test [2] was determined as 30.2%.
In test [1], LRWNPADYPGI showed a relative signal [%] of 6.5%.
In the case of WRLRWNPAD, the relative signal [%] in test [1] came to 9%.
Molecule RLRVNPADY (also: cyclic peptide, ring type and places not given here) yielded a relative signal [%] in test [2] of 61.3%.
Consider DVRLRINPADY (also: cyclic peptide, mode of cyclisation not given here), for which the relative signal [%] in test [2] is 31.4%.
Take RLRYNPADY: the relative signal [%] in test [1] came out at 6.5%.
Molecule GSLRFNPAD yielded a relative signal [%] in test [1] of 9.3%.
Molecule RINPADY (also: cyclic peptide, ring type and places not given here) [RINPADY, cyclic mimotope] showed a relative signal [%] in test [2] of 28.9%.
In test [1], GGGSLRYNP came in with a relative signal [%] of 7.1%.
With VPLRWNPAD, in test [1], the relative signal [%] was determined as 7.6%.
In the case of DVRLRFNPADY, the relative signal [%] in test [1] is 10%.
On the same count and under the same terms, the value for YNLKYNP [YNLKYNP, linear mimotope] was 8.3%; that for GGGSLRFNPAD was 8.1%.
Same read-out and setting: the value for GSLRRNPAD was 9.5%; that for GGGSLRRNPAD was 10.6%; that for QWVDCNLKFNP was 6.4%.
For the molecule IDVRLRFNPAD, in test [1], the relative signal [%] stood at 7.9%.
As to RLRGNPADY (also: cyclic peptide, ring type and places not given here), the relative signal [%] in test [2] was 32.7%.
Same read-out and setting: the value for WIDVRLRGNPA (also: cyclic peptide, mode of cyclisation not given here) was 43.2%.
Consider RWNPADYGH, for which the relative signal [%] in test [1] stood at 9.4%.
In turn, LRVNPADYG yielded a relative signal [%] in test [1] of 31.6%.
Still for that read-out and setting: as for NPADYDG [NPADYDG, linear mimotope], the figure is 10.3%; as for RRNPADY [RRNPADY, linear mimotope], 9.9%; as for LRWNPADYGGF, 10.6%.
In the case of WNPDDYGHV, the relative signal [%] in test [1] was 8.8%.
With LRFNPAD [LRFNPAD, linear mimotope], the relative signal [%] in test [1] turned out to be 37.1%.
As to CNLKYNP [CNLKYNP, linear mimotope], in test [1], the relative signal [%] was determined as 6.7%.
WNPADYR [WNPADYR, linear mimotope] came in with a relative signal [%] in test [1] of 40.6%.
HSLRWNPAD gave a relative signal [%] in test [1] of 6.6%.
In test [1], DVRLRINPADY displayed a relative signal [%] of 8.5%.
Still for that read-out and setting: as for HWNPADY [HWNPADY, linear mimotope], the figure is 7.4%; as for VDCNLKFNP, 6.8%.
The same measure, in the same setting: the value for WNPADYH [WNPADYH, linear mimotope] was 9.4%.
SLRWNPADYHG gave a relative signal [%] in test [1] of 10.6%.
Same read-out and setting: the value for RTNPADY [RTNPADY, linear mimotope] was 7.2%.
As to RLNPADY (also: cyclic peptide, ring type and places not given here) [RLNPADY, cyclic mimotope], the relative signal [%] in test [2] is 42.3%.
For the molecule RFNPADY (also: cyclic peptide, ring type and places not given here) [RFNPADY, cyclic mimotope], in test [2], the relative signal [%] is 37.5%.
On to ALRWNPADY, for which the relative signal [%] in test [1] came out at 6%.
In turn, HRLRWNPAD came in with a relative signal [%] in test [1] of 6.7%.
As for NPADYGN [NPADYGN, linear mimotope], the relative signal [%] in test [1] was found to be 6.5%.
In test [1], DVRLRWNPSDY registered a relative signal [%] of 6.8%.
The same measure, in the same setting: as for VDYNLKFNP, the figure is 7.6%.
On to LRVNPADYG (also: cyclic peptide, mode of cyclisation not given here), for which, in test [2], the relative signal [%] worked out at 45.1%.
The molecule RHNPADY [RHNPADY, linear mimotope] displayed a relative signal [%] in test [1] of 8.9%.
Same read-out and setting: the value for LRWNPADYHGI was 7.2%.
Regarding RLRLNPADY (also: cyclic peptide, ring type and places not given here), in test [2], the relative signal [%] was determined as 37.3%.
With VRLRWNPADYP (also: cyclic peptide, mode of cyclisation not given here), the relative signal [%] in test [2] turned out to be 100%.
On to RIRWNPADY, for which, in test [1], the relative signal [%] stood at 6.8%.
YNLPWNP [YNL PWNP, linear mimotope] showed a relative signal [%] in test [1] of 7.6%.
NPADYGI [NPADYGI, linear mimotope] returned a relative signal [%] in test [1] of 8%.
SLRFNPADY yielded a relative signal [%] in test [1] of 6.5%.
The same measure, in the same setting: as for RPNPADYGG, the figure is 8.6%; as for RLRGNPADY, 6.9%; as for LRINPAD [LRINPAD, linear mimotope], 9.2%.
Still for that read-out and setting: as for SLRVNPADY, the figure is 6.7%; as for LRPNPADYG, 6.1%.
Still for that read-out and setting: the value for GSLRYNP [GSLRYNP, linear mimotope] was 34.4%; that for RGNPADY [RGNPADY, linear mimotope] was 6.9%.

These data come from patent US20230381328A1, “COMPOUND FOR THE PREVENTION OR TREATMENT OF MYASTHENIA GRAVIS” (ABLEVIA BIOTECH GMBH, priority 2020, published 2023).
